From patent US12473352 (SUN YAT SEN UNIVERSITY, dated 2025)
Numbering of substitutions follows the chain as printed.

T1: human IFP35 protein (human, UniProt P80217 1-286, limits assumed)
T1 construct: also called interferon-induced protein 35; IFI35
T1 chain: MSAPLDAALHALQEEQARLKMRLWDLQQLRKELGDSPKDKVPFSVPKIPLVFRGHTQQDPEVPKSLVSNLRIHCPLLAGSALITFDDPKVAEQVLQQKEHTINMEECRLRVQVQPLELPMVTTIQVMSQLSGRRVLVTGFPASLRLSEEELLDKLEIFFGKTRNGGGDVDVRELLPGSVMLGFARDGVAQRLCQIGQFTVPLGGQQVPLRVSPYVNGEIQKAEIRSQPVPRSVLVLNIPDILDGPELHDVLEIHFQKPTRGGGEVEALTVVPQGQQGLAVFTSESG

B1: IFP35 NID (other)
chain: IQVMSQLSGRRVLVTGFPASLRLSEEELLDKLEIFFGKTRNGGGDVDVRELLPGSVMLGFARDGVAQRLCQIGQFTVPLGGQQVPLRVSPYVNGEIQ
notes: also called NID domain of IFP35 (a fragment consisting of amino acids at positions 124-220); antigen IFP35 NID
B2: 35NIDmAb (antibody, V domains shown)
VH: VQLVESGPELKKPGETVKISCKASGYTFTNYGMNWVKQAPGKGLKWMGWINTYTGEPTFADDFKGRFAFSLETSASTAYLQINNLKNEDTATYFCARYGYSWAMDYWGQGTSVTVSS
VL: DIVMTQSPAIMSASPGEKVTMTCSASSSVSYMHWYQQKSGTSPKRWIYDTSKLASGVPARFSGSGSGTSYSLTISSMEAEDAATYYCQQWSSNPPITFGAGTKLEIK
notes: Mouse monoclonal antibody from hybridoma ascites; also called AE001-VH+VL; AE001-VH+VL (35NIDmAb)
B3: AE001-H3+L3 (antibody, V domains shown)
VH: QVQLVQSGAEVKKPGASVKVSCKASGYTFTNYGMNWVRQAPGQGLEWMGWINTYTGEPTVAQKFQGRFTFTLDTSTSTAYLELSSLRNEDTAVYFCARYGYSWAMDYWGQGTSVTVSS
VL: DIQMTQSPSSLSASVGDRVTITCQASSSVSYMHWYQQKPGKAPKRLIYDTSKLASGVPSRFSGSGSGTDYTLTISSLQPEDIATYYCQQWSSNPPITFGAGTKLEIK
notes: The same doubt about the 'constant region' label applies as for AE001-H1+L1; also called AE001H3 + AE001L3; humanized antibody
B4: AE001-H1+L1 (antibody, V domains shown)
VH: B3 VH with Q6E, V20I, R38K, E46K, V60F, K63D, T76A, E82Q, L83I
VL: B3 VL with L11M, I21M, A42S, L46W, L77M
notes: also called AE001H1 + AE001L1; humanized antibody
B5: AE001-8 (antibody, human IgG1, V domains shown)
VH: B3 VH
VL: B3 VL with S92P, N93L
notes: Human IgG1; CDR mutant of AE001-H3+L3; also called AE001-6Hc + 8Lc; AE001-6HC + 8LC
B6: AE001-6 (antibody, human IgG1, V domains shown)
VH: B3 VH
VL: B3 VL with S92P, N93Y
notes: Human IgG1; CDR mutant of AE001-H3+L3; also called AE001-6Hc + Lc; AE001-6HC + LC
B7: AE001-H2+L2 (antibody, V domains shown)
VH: B3 VH with V20I, V60F, L83I
VL: B3 VL with I21M, L46W, L77M
notes: Humanized form of 35NIDmAb with the same CDRs; The same doubt about the 'constant region' label applies as for AE001-H1+L1; also called AE001H2 + AE001L2; humanized antibody
B8: AE001-9 (antibody, human IgG1, V domains shown)
VH: B3 VH
VL: B3 VL with S92P, N93R
notes: Human IgG1; CDR mutant of AE001-H3+L3; also called AE001-6Hc + 9Lc; AE001-6HC + 9LC
B9: AE001-7 (antibody, human IgG1, V domains shown)
VH: B3 VH
VL: B3 VL with P94S, P95W, I96S
notes: Human IgG1; CDR mutant of AE001-H3+L3; also called AE001-6Hc + 7Lc; AE001-6HC + 7LC

How the values were obtained:
[1] = biological target: the molecule itself; experiment: crystal structure of IFP35 NID alone
IFP35 NID = biological target: B1; experiment: method not stated
human IFP35 protein [2] = biological target: T1, human IFP35 protein; experiment: ELISA (OD450) on human IFP35 protein
human IFP35 protein [3] = biological target: T1, human IFP35 protein; experiment: affinity kinetics (fortebio), antibody loaded
human IFP35 protein [4] = biological target: T1, human IFP35 protein; experiment: affinity kinetics (fortebio); upper end given to the clone said to show the best improvement
human IFP35 protein [5] = biological target: T1, human IFP35 protein; experiment: ELISA (OD450) on antigen IFP35

| Kd (IFP35 NID) [nM] | EC50 (read off the curve) (human IFP35 protein [2]) [µg/mL] | Kd (human IFP35 protein [3]) [nM] | koff (human IFP35 protein [3]) [s⁻¹] | kon (human IFP35 protein [3]) [M⁻¹ s⁻¹] | fold increase in affinity against AE001-H3+L3 (human IFP35 protein [4]) [fold] | EC50 (read off the curve) (human IFP35 protein [5]) [µg/mL] | Binder | binding result [1] |
| --- | --- | --- | --- | --- | --- | --- | --- | --- |
|  |  |  |  |  |  |  | B1 | binds |
| 28 | ~0.06 |  |  |  |  |  | B2 |  |
|  | ~0.2 | 13.9 | 0.00201 | 145000 |  |  | B3 |  |
|  | ~0.05 |  |  |  |  |  | B4 |  |
|  |  | 2.99 | 0.00044 | 147000 | 2.5 to 4.6 | ~0.2 | B5 |  |
|  |  | 3.35 | 0.000508 | 152000 |  | ~0.1 | B6 |  |
|  | ~0.08 |  |  |  |  |  | B7 |  |
|  |  | 3.04 | 0.000454 | 149000 |  | ~0.2 | B8 |  |
|  |  | 3.46 | 0.000524 | 151000 |  | ~0.2 | B9 |  |
